Experimental findings from patent US20050085420A1, “Method of modulating apoptosis and compositions thereof” (priority 2003, published 2005) are described below.

The assay concerns the target T1, N-terminal HA-tagged VDAC2 (murine, UniProt Q60930 1-295).
T1 construct: also called HA-VDAC2; hemagglutinin (HA)-tagged version of VDAC2; not shown: N-terminal HA tag
T1 sequence (looked up): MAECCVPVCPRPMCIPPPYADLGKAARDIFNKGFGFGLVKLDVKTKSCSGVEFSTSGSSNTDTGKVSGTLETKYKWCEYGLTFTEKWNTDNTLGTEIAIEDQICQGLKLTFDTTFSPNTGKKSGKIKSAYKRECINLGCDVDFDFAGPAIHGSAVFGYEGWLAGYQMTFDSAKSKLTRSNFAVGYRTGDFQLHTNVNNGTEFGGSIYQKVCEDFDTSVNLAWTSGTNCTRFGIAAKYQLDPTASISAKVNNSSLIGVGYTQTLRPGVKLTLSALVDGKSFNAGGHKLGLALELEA
Briefly: anti-HA immunoprecipitation in 1% CHAPS, anti-BID immunoblot. The protocol:
The activated form of BID, p15 tBID, was first examined in cells expressing only VDAC2 and not the other isoforms, VDAC1 or VDAC3. Mitochondria isolated from vdac1 -/- , vdac3 -/- mouse fibroblasts with or without retroviral transduction of N-terminal HA-tagged VDAC2 were incubated with in vitro transcribed, translated wild-type or mutant tBID (mIII.4, G94E) protein at 30° C. for 30 min, followed by anti-HA immunoprecipitation in 1% CHAPS buffer.
A general note: A western blot detects proteins with antibodies after separation by electrophoresis.

B1: mutant tBID mIII.4 (G94E) (other, UniProt P70444 60-195, looked up)
chain: GSQASRSFNQGRIEPDSESQEEIIHNIARHLAQIEDEMDHNIQPTLVRQLAAQFMNGSLSEEDKRNCLAKALDEVKTAFPRDMENDKAMLIMTMLLAKKVASHAPSLLRDVFHTTVNFINQNLFSYVRNLVRNEMD
notes: domain: p15 tBID; also called m111.4 mutant; m l 11.4
In the case of B1, the binding result is given as “no binding”.
